Substitutions are numbered along the chain they refer to. Names and notes keep the numbering of the source. Values joined by “and” are separate entries in the source; they are usually repeats but may differ in a detail not shown here. Equal entries are not always repeated.
B1: WspR^wt (His-tagged WspR, purified) (enzyme, Pseudomonas aeruginosa)
chain: MHNPHESKTDLGAPLDGAVMVLLVDDQAMIGEAVRRSLASEAGIDFHFCSDPQQAVAVANQIKPTVILQDLVMPGVDGLTLLAAYRGNPATRDIPIIVLSTKEEPTVKSAAFAAGANDYLVKLPDAIELVARIRYHSRSYIALQQRDEAYRALRESQQQLLETNLVLQRLMNSDGLTGLSNRRHFDEYLEMEWRRSLREQSQLSLLMIDVDYFKSYNDTFGHVAGDEALRQVAGAIREGCSRSSDLAARYGGEEFAMVLPGTSPGGARLLAEKVRRTVESLQISHDQPRPGSHLTVSIGVSTLVPGGGGQTFRVLIEMADQALYQAKNNGRNQVGLMEQPVPPAPAG
B2: WspR^V72D (His-tagged WspR V72D variant, purified) (enzyme, Pseudomonas aeruginosa)
chain: B1 chain with V72D

Target: the molecule itself
Assay: SEC

Protein | stoichiometry N
B1 | 4 and 2
B2 | 4 and 2

— publication PMC3663191 (mBio, 2013)
